Source: patent US5789380A, “Agents for inhibiting accumulation of visceral fat” (Nisshin Flour Milling Co., Ltd., priority 1996, dated 1998)

T1: human pancreatic α-amylase (human, UniProt P04746)
T1 sequence: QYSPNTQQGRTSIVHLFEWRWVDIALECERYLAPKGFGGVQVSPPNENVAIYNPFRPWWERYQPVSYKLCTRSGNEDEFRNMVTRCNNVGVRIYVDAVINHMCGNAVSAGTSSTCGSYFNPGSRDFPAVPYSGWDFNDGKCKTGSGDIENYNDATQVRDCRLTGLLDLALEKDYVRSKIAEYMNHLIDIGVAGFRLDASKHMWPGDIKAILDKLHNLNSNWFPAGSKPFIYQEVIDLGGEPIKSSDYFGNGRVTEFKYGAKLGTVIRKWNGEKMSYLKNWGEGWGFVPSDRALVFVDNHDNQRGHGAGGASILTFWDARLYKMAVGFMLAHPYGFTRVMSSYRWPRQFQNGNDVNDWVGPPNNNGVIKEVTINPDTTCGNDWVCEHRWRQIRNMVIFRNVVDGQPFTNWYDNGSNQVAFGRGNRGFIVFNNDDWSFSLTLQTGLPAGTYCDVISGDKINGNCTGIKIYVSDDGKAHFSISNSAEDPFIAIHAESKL


Tests used:
[1] = biological target: T1, human pancreatic α-amylase; test: cell-based or functional assay
[2] = tested on: human pancreatic α-amylase; test: Determination of inhibitory activity against human pancreatic α-amylase; assay type: biochemical; conditions: 1 U = amount inhibiting 50% of amylase activity, pH 6.9, 37° C., soluble starch
Procedure: The numerical values as given herein for the amylase inhibitory activity are determined by the following method, which are represented in terms of the inhibitory activity value against human pancreatic α-amylase.
Determination of inhibitory activity against human pancreatic α-amylase:
An aqueous solution of a sample and human pancreatic α-amylase were added to 20 mM piperazine-N,N'-bis(2-ethanesulfonic acid) buffer (pH 6.9) containing 50 mM NaCl, 5 mM CaCl2 and 0.02% egg white albumin. The mixture was allowed to stand at 37° C. for 30 min. and then mixed with 0.5 ml of a 1.5% soluble starch solution (pH 6.9). The resulting solution was allowed to react while maintaining at 37° C. for 10 min. and the reaction was then ceased by adding 2.5 ml of a solution (0.08M HCl and 0.4M acetic acid). To 0.2 ml of the reaction solution was added 2.5 ml of an iodine solution (0.05% KI and 0.005% iodine), and the mixture was measured for absorbance at 660 nm. The amylase was used in an amount sufficient to reduce 80% absorbance when no sample solution was contained and the amount of the amylase inhibitor sufficient to inhibit 50% amylase activity at this time was expressed as 1 amylase inhibitory unit (U).

| Amylase inhibitory activity (U/mg) [1] | Amylase inhibitory activity [2] | Amylase inhibitory activity ([2]; listed as 0.58 AI) | Molecule |
| --- | --- | --- | --- |
|  | 3,940 U/mg | less amylase inhibitory activity | 0.53 AI: known wheat amylase inhibitor protein composed of two subunits, each identified as SEQ ID NO:4 (protein) chain 1: SGPWMCYPGQAFQVPALPGCRPLLKLQCNGSQVPEAVLRDCCQQLADISEWPRCGALYSMLDSMYKEHGVSEGQAGTGAFPSCRREVVKLTAASITAVCRLPIVVDASGDGAYVCKDVAAYPDA chain 2: SGPWMCYPGQAFQVPALPGCRPLLKLQCNGSQVPEAVLRDCCQQLADISEWPRCGALYSMLDSMYKEHGVSEGQAGTGAFPSCRREVVKLTAASITAVCRLPIVVDASGDGAYVCKDVAAYPDA |
| 3940 U/mg |  |  | 0.53 AI (other) SGPWMCYPGQAFQVPALPGCRPLLKLQCNGSQVPEAVLRDCCQQLADISEWPRCGALYSMLDSMYKEHGVSEGQAGTGAFPSCRREVVKLTAASITAVCRLPIVVDASGDGAYVCKDVAAYPDA |

The remaining lines, values behind:

| Molecule | Amylase inhibitory activity (U/mg) [1] | Amylase inhibitory activity [2] | Amylase inhibitory activity ([2]; listed as 0.58 AI) |
| --- | --- | --- | --- |
| 0.26 AIb (other) SGPWMCYPGYAFKVPALPGCRPVLKLQCNGSQVPEAVLRDCCQQLADISEWCRCGALYSMLDSMYKEHGVQEGQAGTGAFPSCRREVVKLTAASITAVCKLPIVIDASGDGAYVCKGVAAYP | 20500 U/mg |  |  |
| 0.26 AIa (other) SGPWMCYPGYAFKVPALPGCRPVLKLQCNGSQVPEAVLRDCCQQLADISEWCRCGALYSMLDSMYKEHGVQEGQAGTGAFPSCRREVVKLTAASITAVCKLPIVIDASGDGAYVCKGVAAYPDA | 26100 U/mg |  |  |
| 0.19 AI (other) SGPWMCYPGQAFQVPALPACRPLLRLQCNGSQVPEAVLRDCCQQLAHISEWCRCGALYSMLDSMYKEHGAQEGQAGTGAFPRCRREVVKLTAASITAVCRLPIVVDASGDGAYVCKDVAAYPDA | 20300 U/mg |  |  |
| 0.28 AI (other) SGPWSWCNPATGYKVSALTGCRAMVKLQCVGSQVPEAVLRDCCQQLADINNEWCRCGDLSSMLRAVTQELGVREGKEVLPGCRKEVMKLTAASVPEVCKVPIPNPSGDRAGVCYGDWCAYPDV | 840 U/mg |  |  |
